Test results from PMC8360603.

Target: DDB1/DCAF1 C-terminal domain complex (UniProt Q16531)
UniProt Q16531, sequence (Q16531 whole entry, chain 1 of 2, the tested form may be a part): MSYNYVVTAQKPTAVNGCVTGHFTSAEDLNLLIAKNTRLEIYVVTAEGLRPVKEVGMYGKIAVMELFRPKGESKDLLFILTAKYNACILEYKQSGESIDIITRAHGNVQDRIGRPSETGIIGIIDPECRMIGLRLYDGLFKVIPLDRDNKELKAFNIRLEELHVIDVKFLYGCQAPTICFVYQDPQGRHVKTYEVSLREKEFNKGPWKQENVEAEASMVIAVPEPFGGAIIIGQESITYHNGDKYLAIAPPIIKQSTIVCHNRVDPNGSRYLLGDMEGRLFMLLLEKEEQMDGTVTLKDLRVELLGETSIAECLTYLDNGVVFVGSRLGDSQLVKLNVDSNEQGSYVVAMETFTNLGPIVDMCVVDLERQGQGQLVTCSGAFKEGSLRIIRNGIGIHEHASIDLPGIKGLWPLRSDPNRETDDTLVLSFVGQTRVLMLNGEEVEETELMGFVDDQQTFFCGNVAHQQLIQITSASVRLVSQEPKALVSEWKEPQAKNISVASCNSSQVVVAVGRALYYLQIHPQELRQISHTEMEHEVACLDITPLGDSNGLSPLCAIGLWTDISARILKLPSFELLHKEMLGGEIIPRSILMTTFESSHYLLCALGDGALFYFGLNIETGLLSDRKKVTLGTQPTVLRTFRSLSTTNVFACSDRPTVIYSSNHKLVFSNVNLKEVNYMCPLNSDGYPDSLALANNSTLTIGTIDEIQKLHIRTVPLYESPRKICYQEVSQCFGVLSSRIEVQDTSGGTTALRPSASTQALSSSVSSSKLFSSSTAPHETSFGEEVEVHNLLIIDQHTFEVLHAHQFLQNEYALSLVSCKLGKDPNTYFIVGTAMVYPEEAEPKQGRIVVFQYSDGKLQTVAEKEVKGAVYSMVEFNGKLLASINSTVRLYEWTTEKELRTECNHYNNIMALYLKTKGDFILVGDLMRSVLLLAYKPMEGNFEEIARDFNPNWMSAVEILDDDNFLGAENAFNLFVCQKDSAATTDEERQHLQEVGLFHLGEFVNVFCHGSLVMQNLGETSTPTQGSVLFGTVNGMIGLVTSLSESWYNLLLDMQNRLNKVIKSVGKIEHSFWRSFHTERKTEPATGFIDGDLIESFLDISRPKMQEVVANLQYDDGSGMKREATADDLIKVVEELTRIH
UniProt Q16531, sequence (Q9Y4B6 1046-1396, chain 2 of 2, further chain): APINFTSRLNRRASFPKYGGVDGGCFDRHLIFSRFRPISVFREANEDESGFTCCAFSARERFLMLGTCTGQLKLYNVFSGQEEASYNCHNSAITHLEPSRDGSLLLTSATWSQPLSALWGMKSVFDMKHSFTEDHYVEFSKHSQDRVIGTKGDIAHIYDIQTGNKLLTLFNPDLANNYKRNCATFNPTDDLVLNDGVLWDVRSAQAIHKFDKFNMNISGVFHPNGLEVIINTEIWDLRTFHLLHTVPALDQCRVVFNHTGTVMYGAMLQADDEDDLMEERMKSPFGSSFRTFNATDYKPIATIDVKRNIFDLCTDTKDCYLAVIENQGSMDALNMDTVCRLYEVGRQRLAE

In the case of T4L-SAMHD1-CtD (domain or fragment), the in vitro ubiquitylation of T4L-SAMHD1-CtD by CRL4^DCAF1-CtD (UBA1, UBCH5C, ubiquitin, ATP) with HisSUMO-T4L-Vprmus (1-92), 0-15 min, SDS-PAGE; loss of the unmodified band is reported as over 90%.
